# Test results from patent US20030186334A1, “KTS-disintegrins” (Temple University - Of the Commonwealth System of Higher …, priority 2001, published 2003).
# T1: αvβ3 integrin, P06756
# T1 chain 1: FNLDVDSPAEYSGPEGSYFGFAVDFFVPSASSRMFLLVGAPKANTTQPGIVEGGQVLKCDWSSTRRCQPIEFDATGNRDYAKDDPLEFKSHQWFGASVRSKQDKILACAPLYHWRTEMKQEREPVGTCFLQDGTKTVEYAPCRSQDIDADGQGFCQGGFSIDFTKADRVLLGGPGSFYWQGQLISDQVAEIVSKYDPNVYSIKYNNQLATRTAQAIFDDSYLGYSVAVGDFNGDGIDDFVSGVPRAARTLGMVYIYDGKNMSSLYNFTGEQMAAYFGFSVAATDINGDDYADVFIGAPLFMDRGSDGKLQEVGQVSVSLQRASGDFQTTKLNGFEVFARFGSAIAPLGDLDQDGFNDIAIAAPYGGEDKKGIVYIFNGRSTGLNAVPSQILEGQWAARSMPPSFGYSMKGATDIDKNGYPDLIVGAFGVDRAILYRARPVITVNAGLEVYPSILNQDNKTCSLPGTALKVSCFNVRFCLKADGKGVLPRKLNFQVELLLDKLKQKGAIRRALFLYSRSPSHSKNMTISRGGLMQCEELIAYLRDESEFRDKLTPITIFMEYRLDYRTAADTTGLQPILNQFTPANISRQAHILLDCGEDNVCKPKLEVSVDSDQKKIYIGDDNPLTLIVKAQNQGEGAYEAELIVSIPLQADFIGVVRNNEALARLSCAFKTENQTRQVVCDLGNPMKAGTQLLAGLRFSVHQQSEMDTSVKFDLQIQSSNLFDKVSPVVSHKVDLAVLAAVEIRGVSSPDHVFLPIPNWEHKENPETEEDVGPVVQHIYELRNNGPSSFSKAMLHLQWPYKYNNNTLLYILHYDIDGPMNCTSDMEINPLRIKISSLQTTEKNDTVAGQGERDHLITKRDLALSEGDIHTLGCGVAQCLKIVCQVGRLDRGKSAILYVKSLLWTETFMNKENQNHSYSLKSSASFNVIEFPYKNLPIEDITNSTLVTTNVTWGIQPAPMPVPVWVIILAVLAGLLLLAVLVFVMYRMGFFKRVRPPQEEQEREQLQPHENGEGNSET
# T1 chain 2: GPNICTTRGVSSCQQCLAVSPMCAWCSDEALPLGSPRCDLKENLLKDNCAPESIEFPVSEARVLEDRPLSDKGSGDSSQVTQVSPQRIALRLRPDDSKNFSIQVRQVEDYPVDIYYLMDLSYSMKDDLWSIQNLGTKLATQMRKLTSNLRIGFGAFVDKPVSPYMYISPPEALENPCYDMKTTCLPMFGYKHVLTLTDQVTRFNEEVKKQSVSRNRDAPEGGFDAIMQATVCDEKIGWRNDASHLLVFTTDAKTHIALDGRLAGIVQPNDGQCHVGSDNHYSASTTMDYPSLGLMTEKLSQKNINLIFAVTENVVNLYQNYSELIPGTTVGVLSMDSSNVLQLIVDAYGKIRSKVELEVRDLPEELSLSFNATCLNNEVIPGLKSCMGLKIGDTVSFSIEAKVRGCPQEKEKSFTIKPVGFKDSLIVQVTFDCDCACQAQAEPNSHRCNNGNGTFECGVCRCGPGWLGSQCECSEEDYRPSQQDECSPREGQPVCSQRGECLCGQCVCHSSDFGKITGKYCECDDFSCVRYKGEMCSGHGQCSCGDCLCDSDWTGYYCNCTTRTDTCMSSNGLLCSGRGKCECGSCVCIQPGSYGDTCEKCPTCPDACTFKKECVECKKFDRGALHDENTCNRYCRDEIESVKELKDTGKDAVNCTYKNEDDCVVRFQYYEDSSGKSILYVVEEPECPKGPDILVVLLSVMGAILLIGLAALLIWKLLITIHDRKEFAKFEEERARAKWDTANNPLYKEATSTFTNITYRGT
# T2: mouse α1β1 integrin (mouse), Q3V3R4
# T2 chain 1: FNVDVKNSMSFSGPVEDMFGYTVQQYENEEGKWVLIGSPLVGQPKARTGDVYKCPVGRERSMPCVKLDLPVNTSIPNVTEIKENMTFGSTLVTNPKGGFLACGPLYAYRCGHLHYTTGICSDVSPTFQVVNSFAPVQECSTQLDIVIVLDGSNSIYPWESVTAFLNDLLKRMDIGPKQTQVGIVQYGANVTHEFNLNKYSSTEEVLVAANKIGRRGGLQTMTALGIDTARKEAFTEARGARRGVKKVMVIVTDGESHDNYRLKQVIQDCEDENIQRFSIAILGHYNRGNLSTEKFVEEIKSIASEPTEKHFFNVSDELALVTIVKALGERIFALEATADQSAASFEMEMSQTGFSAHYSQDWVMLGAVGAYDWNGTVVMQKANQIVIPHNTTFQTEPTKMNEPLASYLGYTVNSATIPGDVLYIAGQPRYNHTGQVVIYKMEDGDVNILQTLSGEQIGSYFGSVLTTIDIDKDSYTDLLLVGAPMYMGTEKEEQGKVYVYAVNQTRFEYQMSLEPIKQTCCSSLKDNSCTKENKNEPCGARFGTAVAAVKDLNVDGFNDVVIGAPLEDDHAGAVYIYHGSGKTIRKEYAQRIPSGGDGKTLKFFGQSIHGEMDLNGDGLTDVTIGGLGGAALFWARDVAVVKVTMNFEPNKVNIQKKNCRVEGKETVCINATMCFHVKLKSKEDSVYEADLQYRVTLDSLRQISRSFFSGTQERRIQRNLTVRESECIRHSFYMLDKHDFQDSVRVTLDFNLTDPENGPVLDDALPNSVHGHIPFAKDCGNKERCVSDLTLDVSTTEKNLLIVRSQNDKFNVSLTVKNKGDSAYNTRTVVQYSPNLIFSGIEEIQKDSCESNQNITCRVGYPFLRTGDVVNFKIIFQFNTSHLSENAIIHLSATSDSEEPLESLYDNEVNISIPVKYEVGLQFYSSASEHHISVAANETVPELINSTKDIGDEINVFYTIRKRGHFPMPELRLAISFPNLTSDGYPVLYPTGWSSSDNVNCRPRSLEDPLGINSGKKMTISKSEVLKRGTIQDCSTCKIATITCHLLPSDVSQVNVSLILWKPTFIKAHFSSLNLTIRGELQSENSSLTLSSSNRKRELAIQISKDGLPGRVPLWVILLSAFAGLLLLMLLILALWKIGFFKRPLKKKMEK
# T2 chain 2: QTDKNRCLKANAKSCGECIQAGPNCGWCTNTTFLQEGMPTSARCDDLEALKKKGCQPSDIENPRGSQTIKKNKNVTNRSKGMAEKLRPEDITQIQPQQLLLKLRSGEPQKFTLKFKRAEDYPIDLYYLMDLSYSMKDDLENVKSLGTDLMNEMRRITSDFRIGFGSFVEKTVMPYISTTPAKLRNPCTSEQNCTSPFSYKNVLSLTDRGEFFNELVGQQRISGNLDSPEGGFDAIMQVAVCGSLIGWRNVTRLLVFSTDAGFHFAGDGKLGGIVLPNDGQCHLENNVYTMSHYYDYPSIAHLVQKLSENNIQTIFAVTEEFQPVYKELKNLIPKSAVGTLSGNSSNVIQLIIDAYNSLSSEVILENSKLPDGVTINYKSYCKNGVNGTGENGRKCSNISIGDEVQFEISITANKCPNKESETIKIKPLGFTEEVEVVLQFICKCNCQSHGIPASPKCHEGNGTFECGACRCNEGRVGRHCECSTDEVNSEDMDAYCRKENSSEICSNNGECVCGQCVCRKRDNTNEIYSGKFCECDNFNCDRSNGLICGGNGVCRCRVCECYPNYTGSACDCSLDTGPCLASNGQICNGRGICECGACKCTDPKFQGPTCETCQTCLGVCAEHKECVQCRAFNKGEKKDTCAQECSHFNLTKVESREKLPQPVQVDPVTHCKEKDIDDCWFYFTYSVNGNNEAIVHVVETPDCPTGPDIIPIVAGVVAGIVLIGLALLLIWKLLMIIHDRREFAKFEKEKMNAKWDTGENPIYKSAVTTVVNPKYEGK
# Molecular target: αIIbβ3 integrin, P08514
# Experiment: inhibition of adhesion of A5 cells to fibrinogen
row,Binder,IC50 [µM]
1,"QCESGPCCRNCKFLKEGTICKRARGDDMDDYCNGKTCDCPRNPHKGPAT (modifications not checked) [echistatin, P17347 131-179]",0.05
2,"QEEPCATGPCCRRCKFKRAGKVCRVARGDWNDDYCTGKSCDCPKNPWNG (modifications not checked) [eristostatin, P0C6S4 1-49]",0.005

# Molecular target: α4β1 integrin, P13612
# Experiment: inhibition of adhesion of Jurkat cells to VCAM-1
row,Binder,IC50 [µM]
1,"QCESGPCCRNCKFLKEGTICKRARGDDMDDYCNGKTCDCPRNPHKGPAT (modifications not checked) [echistatin, P17347 131-179]",> 10
2,"QEEPCATGPCCRRCKFKRAGKVCRVARGDWNDDYCTGKSCDCPKNPWNG (modifications not checked) [eristostatin, P0C6S4 1-49]",> 10

# Molecular target: αIIbβ3 integrin, P08514
# Experiment: inhibition of adhesion of A5 cells to fibrinogen
# Remark: another data set of the same source
row,Binder,IC50 [µM]
1,"QEEPCATGPCCRRCKFKRAGKVCRVARGDWNDDYCTGKSCDCPKNPWNG (modifications not checked) [eristostatin, P0C6S4 1-49]",0.05

# Molecular target: T1, αvβ3 integrin, P06756
# Experiment: inhibition of adhesion of JY cells to vitronectin
row,Binder,IC50 [µM]
1,"QCESGPCCRNCKFLKEGTICKRARGDDMDDYCNGKTCDCPRNPHKGPAT (modifications not checked) [echistatin, P17347 131-179]",0.0001
2,"QEEPCATGPCCRRCKFKRAGKVCRVARGDWNDDYCTGKSCDCPKNPWNG (modifications not checked) [eristostatin, P0C6S4 1-49]",2

# Molecular target: α9β1 integrin, Q13797
# Experiment: inhibition of adhesion of SW480α9 cells to VCAM-1
# Sequence of α9β1 integrin, Q13797 (Q13797 30-1035): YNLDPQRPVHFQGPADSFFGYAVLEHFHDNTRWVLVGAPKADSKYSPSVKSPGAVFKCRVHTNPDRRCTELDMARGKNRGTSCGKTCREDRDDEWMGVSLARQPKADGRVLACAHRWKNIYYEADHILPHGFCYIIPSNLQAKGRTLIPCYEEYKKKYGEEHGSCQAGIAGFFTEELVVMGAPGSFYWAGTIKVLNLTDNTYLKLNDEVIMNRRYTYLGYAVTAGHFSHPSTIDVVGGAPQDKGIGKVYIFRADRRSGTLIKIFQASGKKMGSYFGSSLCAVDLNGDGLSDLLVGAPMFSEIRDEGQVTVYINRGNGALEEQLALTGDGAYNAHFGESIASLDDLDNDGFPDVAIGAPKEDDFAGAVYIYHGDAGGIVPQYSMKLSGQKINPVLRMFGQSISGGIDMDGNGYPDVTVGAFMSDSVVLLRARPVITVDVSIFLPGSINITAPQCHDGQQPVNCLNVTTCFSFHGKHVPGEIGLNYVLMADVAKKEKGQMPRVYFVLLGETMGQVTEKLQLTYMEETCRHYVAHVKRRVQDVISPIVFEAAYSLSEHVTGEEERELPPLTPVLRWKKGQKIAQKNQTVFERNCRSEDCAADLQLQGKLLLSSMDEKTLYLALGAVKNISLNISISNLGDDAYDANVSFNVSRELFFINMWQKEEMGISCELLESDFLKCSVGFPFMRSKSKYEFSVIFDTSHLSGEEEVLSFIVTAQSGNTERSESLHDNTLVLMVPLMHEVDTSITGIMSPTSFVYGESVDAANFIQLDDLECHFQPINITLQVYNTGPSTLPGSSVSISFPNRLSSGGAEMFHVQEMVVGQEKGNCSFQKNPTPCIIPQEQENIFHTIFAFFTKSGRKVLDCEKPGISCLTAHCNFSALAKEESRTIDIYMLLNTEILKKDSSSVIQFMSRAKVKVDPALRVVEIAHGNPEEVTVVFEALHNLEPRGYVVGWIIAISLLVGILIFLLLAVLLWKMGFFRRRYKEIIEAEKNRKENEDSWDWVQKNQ
row,Binder,IC50 [µM]
1,"QCESGPCCRNCKFLKEGTICKRARGDDMDDYCNGKTCDCPRNPHKGPAT (modifications not checked) [echistatin, P17347 131-179]",> 10
2,"QEEPCATGPCCRRCKFKRAGKVCRVARGDWNDDYCTGKSCDCPKNPWNG (modifications not checked) [eristostatin, P0C6S4 1-49]",> 10

# Molecular target: α5β1 integrin, P08648
# Experiment: inhibition of adhesion of K562 cells to fibronectin
# Sequence of α5β1 integrin, P08648 (P08648 42-1049): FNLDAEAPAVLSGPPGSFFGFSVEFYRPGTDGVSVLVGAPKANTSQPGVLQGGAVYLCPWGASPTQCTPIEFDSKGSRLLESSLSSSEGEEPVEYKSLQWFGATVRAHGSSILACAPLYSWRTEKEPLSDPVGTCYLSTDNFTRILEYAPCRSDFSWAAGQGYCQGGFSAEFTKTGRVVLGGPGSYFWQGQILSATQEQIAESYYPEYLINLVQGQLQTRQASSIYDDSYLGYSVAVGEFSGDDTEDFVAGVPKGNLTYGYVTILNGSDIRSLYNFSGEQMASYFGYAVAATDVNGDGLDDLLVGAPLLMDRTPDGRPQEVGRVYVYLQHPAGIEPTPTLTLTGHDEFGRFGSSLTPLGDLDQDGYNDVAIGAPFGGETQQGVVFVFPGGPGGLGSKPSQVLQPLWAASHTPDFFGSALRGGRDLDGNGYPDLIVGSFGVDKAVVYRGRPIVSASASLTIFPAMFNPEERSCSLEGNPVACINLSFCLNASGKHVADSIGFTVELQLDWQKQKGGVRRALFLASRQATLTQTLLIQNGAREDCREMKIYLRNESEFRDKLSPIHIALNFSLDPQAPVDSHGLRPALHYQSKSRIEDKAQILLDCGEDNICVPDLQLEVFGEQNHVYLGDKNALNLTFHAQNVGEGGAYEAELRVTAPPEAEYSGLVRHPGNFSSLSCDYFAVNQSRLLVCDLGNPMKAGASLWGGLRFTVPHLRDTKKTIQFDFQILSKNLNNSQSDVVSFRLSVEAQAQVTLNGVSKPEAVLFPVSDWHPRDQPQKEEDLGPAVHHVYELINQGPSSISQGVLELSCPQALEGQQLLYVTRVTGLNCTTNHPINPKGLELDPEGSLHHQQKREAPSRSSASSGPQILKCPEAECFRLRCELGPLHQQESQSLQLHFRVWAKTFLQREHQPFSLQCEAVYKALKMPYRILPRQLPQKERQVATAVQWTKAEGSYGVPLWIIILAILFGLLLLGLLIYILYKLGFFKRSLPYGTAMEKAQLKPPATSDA
row,Binder,IC50 [µM]
1,"QCESGPCCRNCKFLKEGTICKRARGDDMDDYCNGKTCDCPRNPHKGPAT (modifications not checked) [echistatin, P17347 131-179]",0.05
2,"QEEPCATGPCCRRCKFKRAGKVCRVARGDWNDDYCTGKSCDCPKNPWNG (modifications not checked) [eristostatin, P0C6S4 1-49]",> 10

# Molecular target: α2β1 integrin, P17301
# Experiment: inhibition of adhesion of α2K562 cells to collagen I
row,Binder,IC50 [µM]
1,"QCESGPCCRNCKFLKEGTICKRARGDDMDDYCNGKTCDCPRNPHKGPAT (modifications not checked) [echistatin, P17347 131-179]",> 10
2,"QEEPCATGPCCRRCKFKRAGKVCRVARGDWNDDYCTGKSCDCPKNPWNG (modifications not checked) [eristostatin, P0C6S4 1-49]",> 10

# Molecular target: human α1β1 integrin (human), P56199
# Experiment: inhibition of adhesion of α1K562 cells to collagen I
row,Binder,IC50 [µM]
1,"QCESGPCCRNCKFLKEGTICKRARGDDMDDYCNGKTCDCPRNPHKGPAT (modifications not checked) [echistatin, P17347 131-179]",> 10
2,"QEEPCATGPCCRRCKFKRAGKVCRVARGDWNDDYCTGKSCDCPKNPWNG (modifications not checked) [eristostatin, P0C6S4 1-49]",> 10

# Molecular target: human α1β1 integrin (human), P56199
# Experiment: inhibition of adhesion of α1K562 cells to collagen IV
row,Binder,IC50 [µM]
1,"QCESGPCCRNCKFLKEGTICKRARGDDMDDYCNGKTCDCPRNPHKGPAT (modifications not checked) [echistatin, P17347 131-179]",> 10
2,"QEEPCATGPCCRRCKFKRAGKVCRVARGDWNDDYCTGKSCDCPKNPWNG (modifications not checked) [eristostatin, P0C6S4 1-49]",> 10

# Molecular target: T2, mouse α1β1 integrin (mouse), Q3V3R4
# Experiment: inhibition of adhesion of B16F10 cells to collagen IV
row,Binder,IC50 [µM]
1,"QCESGPCCRNCKFLKEGTICKRARGDDMDDYCNGKTCDCPRNPHKGPAT (modifications not checked) [echistatin, P17347 131-179]",> 10
2,"QEEPCATGPCCRRCKFKRAGKVCRVARGDWNDDYCTGKSCDCPKNPWNG (modifications not checked) [eristostatin, P0C6S4 1-49]",> 10

# Molecular target: human α1β1 integrin (human), P56199
# Experiment: inhibition of adhesion of HS.939T cells to collagen IV
row,Binder,IC50 [µM]
1,"QCESGPCCRNCKFLKEGTICKRARGDDMDDYCNGKTCDCPRNPHKGPAT (modifications not checked) [echistatin, P17347 131-179]",> 10
2,"QEEPCATGPCCRRCKFKRAGKVCRVARGDWNDDYCTGKSCDCPKNPWNG (modifications not checked) [eristostatin, P0C6S4 1-49]",> 10
